Test results as given in patent US10344077 (DUKE UNIVERSITY, dated 2019).

Experiments:
[1] = target: T1, Centromere B (UniProt P07199 2-599); assay: AtheNA, Ab 25 ug/ml
T1 construct: also called Cent B
T1 sequence (looked up): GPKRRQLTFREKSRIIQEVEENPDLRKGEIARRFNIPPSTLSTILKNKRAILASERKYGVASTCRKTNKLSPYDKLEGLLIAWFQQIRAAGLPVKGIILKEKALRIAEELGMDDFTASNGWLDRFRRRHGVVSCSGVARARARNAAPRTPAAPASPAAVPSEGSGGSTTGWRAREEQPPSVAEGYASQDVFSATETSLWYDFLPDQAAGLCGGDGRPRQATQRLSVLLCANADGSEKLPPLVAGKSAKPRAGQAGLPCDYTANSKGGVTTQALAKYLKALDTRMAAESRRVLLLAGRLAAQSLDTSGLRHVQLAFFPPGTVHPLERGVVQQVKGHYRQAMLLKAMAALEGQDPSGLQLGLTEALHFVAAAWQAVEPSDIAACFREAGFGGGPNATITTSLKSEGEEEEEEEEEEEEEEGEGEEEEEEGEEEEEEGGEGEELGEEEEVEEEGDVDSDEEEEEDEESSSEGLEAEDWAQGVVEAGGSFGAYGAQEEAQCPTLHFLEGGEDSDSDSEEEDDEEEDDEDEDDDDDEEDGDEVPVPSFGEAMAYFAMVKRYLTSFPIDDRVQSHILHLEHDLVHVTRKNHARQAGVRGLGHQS
From the text: (§1) AtheNA Multi-Lyte ANA Plus Test System is one such assay. This is luminex-based assay, which is also used to screen patient sera.

[2] = target: T2, Scl-70 (UniProt P11387 2-765); assay: AtheNA, Ab 25 ug/ml
T2 sequence (looked up): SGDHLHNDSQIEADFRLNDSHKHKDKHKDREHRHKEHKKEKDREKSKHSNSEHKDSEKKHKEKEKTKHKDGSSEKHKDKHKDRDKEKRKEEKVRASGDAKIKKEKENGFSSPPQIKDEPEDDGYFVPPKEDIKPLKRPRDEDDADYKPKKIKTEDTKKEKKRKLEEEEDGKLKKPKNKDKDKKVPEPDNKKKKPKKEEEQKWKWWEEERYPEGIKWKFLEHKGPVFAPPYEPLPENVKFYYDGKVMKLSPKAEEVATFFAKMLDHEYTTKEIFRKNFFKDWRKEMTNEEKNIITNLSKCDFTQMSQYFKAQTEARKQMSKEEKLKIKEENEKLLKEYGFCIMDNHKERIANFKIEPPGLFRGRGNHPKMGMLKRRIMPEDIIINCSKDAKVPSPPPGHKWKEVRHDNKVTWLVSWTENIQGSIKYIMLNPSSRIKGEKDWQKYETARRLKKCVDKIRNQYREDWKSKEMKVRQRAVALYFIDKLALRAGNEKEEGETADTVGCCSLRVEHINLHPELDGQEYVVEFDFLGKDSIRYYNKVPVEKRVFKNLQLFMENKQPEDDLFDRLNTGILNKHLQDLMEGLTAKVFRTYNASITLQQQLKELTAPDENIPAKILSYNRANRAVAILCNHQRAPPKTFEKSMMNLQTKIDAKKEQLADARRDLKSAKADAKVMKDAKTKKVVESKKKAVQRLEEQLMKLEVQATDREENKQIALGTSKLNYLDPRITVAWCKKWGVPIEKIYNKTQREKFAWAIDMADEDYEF
From the text: as §1

[3] = target: SSA; assay: AtheNA, Ab 25 ug/ml
From the text: as §1

[4] = target: Histones; assay: AtheNA, Ab 25 ug/ml
From the text: as §1

[5] = target: T3, SSB (UniProt P05455 1-408); assay: AtheNA, Ab 25 ug/ml
T3 sequence (looked up): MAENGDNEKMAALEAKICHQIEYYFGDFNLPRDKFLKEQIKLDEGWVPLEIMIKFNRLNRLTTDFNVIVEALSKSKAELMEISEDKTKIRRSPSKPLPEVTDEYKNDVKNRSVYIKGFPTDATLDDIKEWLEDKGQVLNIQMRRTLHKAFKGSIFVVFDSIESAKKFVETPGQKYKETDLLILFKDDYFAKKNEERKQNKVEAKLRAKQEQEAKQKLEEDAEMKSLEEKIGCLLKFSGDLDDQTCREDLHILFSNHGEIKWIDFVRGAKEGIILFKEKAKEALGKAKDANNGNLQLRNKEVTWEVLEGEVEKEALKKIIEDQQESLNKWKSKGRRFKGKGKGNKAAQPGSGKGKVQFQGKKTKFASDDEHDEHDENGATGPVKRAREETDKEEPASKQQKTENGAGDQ
From the text: as §1

[6] = target: Sm (Smith antigen); assay: AtheNA, Ab 25 ug/ml
From the text: as §1

[7] = target: RNP (ribonucleoprotein); assay: AtheNA, Ab 25 ug/ml
From the text: as §1

[8] = target: T4, Jo-1 (UniProt P12081 2-509); assay: AtheNA, Ab 25 ug/ml
T4 sequence (looked up): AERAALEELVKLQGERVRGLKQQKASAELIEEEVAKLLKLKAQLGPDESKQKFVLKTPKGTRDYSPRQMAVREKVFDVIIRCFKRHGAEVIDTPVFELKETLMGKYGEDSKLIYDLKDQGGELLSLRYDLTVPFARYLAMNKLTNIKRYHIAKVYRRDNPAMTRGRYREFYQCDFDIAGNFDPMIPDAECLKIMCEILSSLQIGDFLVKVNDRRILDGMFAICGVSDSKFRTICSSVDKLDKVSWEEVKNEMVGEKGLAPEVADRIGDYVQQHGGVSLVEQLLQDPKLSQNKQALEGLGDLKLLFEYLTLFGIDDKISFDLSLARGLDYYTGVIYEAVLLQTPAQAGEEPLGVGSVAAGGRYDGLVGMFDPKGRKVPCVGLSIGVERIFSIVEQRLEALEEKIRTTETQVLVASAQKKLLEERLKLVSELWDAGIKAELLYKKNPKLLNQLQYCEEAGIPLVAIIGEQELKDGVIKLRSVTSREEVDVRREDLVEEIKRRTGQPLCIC
From the text: as §1

[9] = target: T1, Centromere B; assay: AtheNA, Ab 50 ug/ml
From the text: as §1

[10] = target: T2, Scl-70; assay: AtheNA, Ab 50 ug/ml
From the text: as §1

[11] = target: SSA; assay: AtheNA, Ab 50 ug/ml
From the text: as §1

[12] = target: Histones; assay: AtheNA, Ab 50 ug/ml
From the text: as §1

[13] = target: T3, SSB; assay: AtheNA, Ab 50 ug/ml
From the text: as §1

[14] = target: Sm (Smith antigen); assay: AtheNA, Ab 50 ug/ml
From the text: as §1

[15] = target: RNP (ribonucleoprotein); assay: AtheNA, Ab 50 ug/ml
From the text: as §1

[16] = target: T4, Jo-1; assay: AtheNA, Ab 50 ug/ml
From the text: as §1

[17] = target: T1, Centromere B; assay: AtheNA, Ab 12.5 ug/ml
From the text: as §1

[18] = target: T2, Scl-70; assay: AtheNA, Ab 12.5 ug/ml
From the text: as §1

[19] = target: SSA; assay: AtheNA, Ab 12.5 ug/ml
From the text: as §1

[20] = target: Histones; assay: AtheNA, Ab 12.5 ug/ml
From the text: as §1

[21] = target: T3, SSB; assay: AtheNA, Ab 12.5 ug/ml
From the text: as §1

[22] = target: Sm (Smith antigen); assay: AtheNA, Ab 12.5 ug/ml
From the text: as §1

[23] = target: RNP (ribonucleoprotein); assay: AtheNA, Ab 12.5 ug/ml
From the text: as §1

[24] = target: T4, Jo-1; assay: AtheNA, Ab 12.5 ug/ml
From the text: as §1

[25] = target: T1, Centromere B; assay: AtheNA, Ab 6.25 ug/ml
From the text: as §1

[26] = target: T2, Scl-70; assay: AtheNA, Ab 6.25 ug/ml
From the text: as §1

[27] = target: SSA; assay: AtheNA, Ab 6.25 ug/ml
From the text: as §1

[28] = target: Histones; assay: AtheNA, Ab 6.25 ug/ml
From the text: as §1

[29] = target: T3, SSB; assay: AtheNA, Ab 6.25 ug/ml
From the text: as §1

[30] = target: Sm (Smith antigen); assay: AtheNA, Ab 6.25 ug/ml
From the text: as §1

[31] = target: RNP (ribonucleoprotein); assay: AtheNA, Ab 6.25 ug/ml
From the text: as §1

[32] = target: T4, Jo-1; assay: AtheNA, Ab 6.25 ug/ml
From the text: as §1

[33] = target: T5, STUB-1 (human, UniProt Q9UNE7 1-303); assay: array of human antigens
T5 sequence (looked up): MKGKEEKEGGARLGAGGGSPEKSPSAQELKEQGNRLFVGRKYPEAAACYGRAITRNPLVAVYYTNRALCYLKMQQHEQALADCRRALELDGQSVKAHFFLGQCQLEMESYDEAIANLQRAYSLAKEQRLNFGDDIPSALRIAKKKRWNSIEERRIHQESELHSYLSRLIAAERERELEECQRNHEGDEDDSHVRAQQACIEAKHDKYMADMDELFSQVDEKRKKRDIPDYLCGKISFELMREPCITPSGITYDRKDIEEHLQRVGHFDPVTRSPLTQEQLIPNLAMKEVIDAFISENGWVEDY

[34] = target: T2, Scl-70; assay: AtheNA
From the text: as §1

[35] = target: T3, SSB; assay: AtheNA
From the text: as §1

[36] = target: T4, Jo-1; assay: AtheNA
From the text: as §1

B1: CH557 (antibody, V domains shown)
VH: QVRLAQYGGGVKRLGATMTLSCVASGYTFNDYYIHWVRQAPGQGFELLGYIDPANGRPDYAGALRERLSFYRDKSMETLYMDLRSLRYDDTAMYYCVRNVGTAGSLLHYDHWGSGSPVIVSS
VL: EIVLTQSPATLSASPGERVTLTCRASRSVRNNVAWYQHKGGQSPRLLIYDASTRAAGVPARFSGSASGTEFTLAISNLESEDFTVYFCLQYNNWWTFGQGTRVDIK
notes: also called CH557_4A/293i
B1 was tested, and the Athena reading [1] was 25 relative luminescence units, the Athena reading [2] was 4 relative luminescence units and the Athena reading [3] was 4 relative luminescence units. The Athena reading [4] was 8 relative luminescence units, the Athena reading [5] was 12 relative luminescence units and the Athena reading [6] was 6 relative luminescence units. For the same binder, the Athena reading [7] was 6 relative luminescence units, the Athena reading [8] was 2 relative luminescence units and the Athena reading [9] was 46 relative luminescence units. The Athena reading [10] was 6 relative luminescence units, the Athena reading [11] was 6 relative luminescence units and the Athena reading [12] was 16 relative luminescence units. The Athena reading [13] was 15 relative luminescence units, the Athena reading [14] was 8 relative luminescence units and the Athena reading [15] was 10 relative luminescence units. For the same binder, the Athena reading [16] was 10 relative luminescence units, the Athena reading [17] was 16 relative luminescence units and the Athena reading [18] was 3 relative luminescence units. The Athena reading [19] was 3 relative luminescence units, the Athena reading [20] was 6 relative luminescence units and the Athena reading [21] was 9 relative luminescence units. For the same binder, the Athena reading [22] was 6 relative luminescence units, the Athena reading [23] was 3 relative luminescence units and the Athena reading [24] was 5 relative luminescence units. For the same binder, the Athena reading [25] was 11 relative luminescence units, the Athena reading [26] was 3 relative luminescence units and the Athena reading [27] was 4 relative luminescence units. The Athena reading [28] was 4 relative luminescence units, the Athena reading [29] was 5 relative luminescence units and the Athena reading [30] was 4 relative luminescence units. The Athena reading [31] was 4 relative luminescence units, the Athena reading [32] was 5 relative luminescence units and the binding result [33] was “no binding”. B1: no binding (tested: 6.25 ug/ml to 50 ug/ml) [34]; no binding (tested: 6.25 ug/ml to 50 ug/ml) [35]; no binding (tested: 6.25 ug/ml to 50 ug/ml) [36].
